Results reported in US20100189657A1, “INTRAMOLECULARLY QUENCHED FLUOROCHROME CONJUGATES AND METHODS OF USE” (THE GENERAL HOSPITAL CORPORATION, priority 2006, published 2010).
Entries after “also recorded” stand apart in the source; their conditions may differ.

Experiment: Aqueous solubility of the probes
Format: physicochemical
Settings: aqueous solutions
Method: The absorption spectra of equimolar solutions of the probes based on the absorption peak of the free dye, CyTE-777 are shown in FIG. 4. […] The absorption band due to dye aggregation becomes slightly weaker with increasing PEG chain length. […] To determine if the aggregated fluorophores lead to quenching, fluorescence spectra of all the three probes were measured and compared to the fluorescence spectrum of an equimolar solution of CyTE-777 (FIG. 5).
These cysteine proteases are known to be important in biological processes and have similar substrate selectivity. […] The Leu-Arg dipeptide cathepsin S substrate was previously reported to be partially but not completely selective to cathepsin S. The selectivity observed for cathepsin S in the present study is higher than what was expected from the literature reports.

Structure (SMILES)	aqueous solubility
CC(C)C[C@H](NC(=O)CCNC(=O)CCOCCOCCOCCOCCNC(=O)CCSC1=C(/C=C/C2=[N+](CCCCS(=O)(=O)O)c3ccccc3C2(C)C)CCC/C1=C\C=C1\N(CCCCS(=O)(=O)O)c2ccccc2C1(C)C)C(=O)N[C@@H](CCCNC(=N)N)C(=O)NCCC(=O)NCCCC[C@H](NC(=O)CCNC(=O)[C@H](CCCNC(=N)N)NC(=O)[C@H](CC(C)C)NC(=O)CCNC(=O)CCOCCOCCOCCOCCNC(=O)CCSC1=C(/C=C/C2=[N+](CCCCS(=O)(=O)O)c3ccccc3C2(C)C)CCC/C1=C\C=C1\N(CCCCS(=O)(=O)O)c2ccccc2C1(C)C)C(=O)NCCCC[C@H](NC(=O)[C@H](CCCCNC(=O)CCNC(=O)[C@H](CCCNC(=N)N)NC(=O)[C@H](CC(C)C)NC(=O)CCNC(=O)CCOCCOCCOCCOCCNC(=O)CCSC1=C(/C=C/C2=[N+](CCCCS(=O)(=O)O)c3ccccc3C2(C)C)CCC/C1=C\C=C1\N(CCCCS(=O)(=O)O)c2ccccc2C1(C)C)NC(=O)CCNC(=O)[C@H](CCCNC(=N)N)NC(=O)[C@H](CC(C)C)NC(=O)CCNC(=O)CCOCCOCCOCCOCCNC(=O)CCSC1=C(/C=C/C2=[N+](CCCCS(=O)(=O)O)c3ccccc3C2(C)C)CCC/C1=C\C=C1\N(CCCCS(=O)(=O)O)c2ccccc2C1(C)C)C(=O)NCCC(=O)O [CyPEG-1]	practically insoluble
CC(C)C[C@H](NC(=O)CCNC(=O)CCOCCOCCOCCOCCNC(=O)CCOCCOCCOCCOCCNC(=O)CCSC1=C(/C=C/C2=[N+](CCCCS(=O)(=O)O)c3ccccc3C2(C)C)CCC/C1=C\C=C1\N(CCCCS(=O)(=O)O)c2ccccc2C1(C)C)C(=O)N[C@@H](CCCNC(=N)N)C(=O)NCCC(=O)NCCCC[C@H](NC(=O)CCNC(=O)[C@H](CCCNC(=N)N)NC(=O)[C@H](CC(C)C)NC(=O)CCNC(=O)CCOCCOCCOCCOCCNC(=O)CCOCCOCCOCCOCCNC(=O)CCSC1=C(/C=C/C2=[N+](CCCCS(=O)(=O)O)c3ccccc3C2(C)C)CCC/C1=C\C=C1\N(CCCCS(=O)(=O)O)c2ccccc2C1(C)C)C(=O)NCCCC[C@H](NC(=O)[C@H](CCCCNC(=O)CCNC(=O)[C@H](CCCNC(=N)N)NC(=O)[C@H](CC(C)C)NC(=O)CCNC(=O)CCOCCOCCOCCOCCNC(=O)CCOCCOCCOCCOCCNC(=O)CCSC1=C(/C=C/C2=[N+](CCCCS(=O)(=O)O)c3ccccc3C2(C)C)CCC/C1=C\C=C1\N(CCCCS(=O)(=O)O)c2ccccc2C1(C)C)NC(=O)CCNC(=O)[C@H](CCCNC(=N)N)NC(=O)[C@H](CC(C)C)NC(=O)CCNC(=O)CCOCCOCCOCCOCCNC(=O)CCOCCOCCOCCOCCNC(=O)CCSC1=C(/C=C/C2=[N+](CCCCS(=O)(=O)O)c3ccccc3C2(C)C)CCC/C1=C\C=C1\N(CCCCS(=O)(=O)O)c2ccccc2C1(C)C)C(=O)NCCC(=O)O [CyPEG-2]	satisfactory aqueous solubility; also recorded: much higher aqueous solubility
CC(C)C[C@H](NC(=O)CCNC(=O)CCOCCOCCOCCOCCNC(=O)CCOCCOCCOCCOCCNC(=O)CCOCCOCCOCCOCCNC(=O)CCSC1=C(/C=C/C2=[N+](CCCCS(=O)(=O)O)c3ccccc3C2(C)C)CCC/C1=C\C=C1\N(CCCCS(=O)(=O)O)c2ccccc2C1(C)C)C(=O)N[C@@H](CCCNC(=N)N)C(=O)NCCC(=O)NCCCC[C@H](NC(=O)CCNC(=O)[C@H](CCCNC(=N)N)NC(=O)[C@H](CC(C)C)NC(=O)CCNC(=O)CCOCCOCCOCCOCCNC(=O)CCOCCOCCOCCOCCNC(=O)CCOCCOCCOCCOCCNC(=O)CCSC1=C(/C=C/C2=[N+](CCCCS(=O)(=O)O)c3ccccc3C2(C)C)CCC/C1=C\C=C1\N(CCCCS(=O)(=O)O)c2ccccc2C1(C)C)C(=O)NCCCC[C@H](NC(=O)[C@H](CCCCNC(=O)CCNC(=O)[C@H](CCCNC(=N)N)NC(=O)[C@H](CC(C)C)NC(=O)CCNC(=O)CCOCCOCCOCCOCCNC(=O)CCOCCOCCOCCOCCNC(=O)CCOCCOCCOCCOCCNC(=O)CCSC1=C(/C=C/C2=[N+](CCCCS(=O)(=O)O)c3ccccc3C2(C)C)CCC/C1=C\C=C1\N(CCCCS(=O)(=O)O)c2ccccc2C1(C)C)NC(=O)CCNC(=O)[C@H](CCCNC(=N)N)NC(=O)[C@H](CC(C)C)NC(=O)CCNC(=O)CCOCCOCCOCCOCCNC(=O)CCOCCOCCOCCOCCNC(=O)CCOCCOCCOCCOCCNC(=O)CCSC1=C(/C=C/C2=[N+](CCCCS(=O)(=O)O)c3ccccc3C2(C)C)CCC/C1=C\C=C1\N(CCCCS(=O)(=O)O)c2ccccc2C1(C)C)C(=O)NCCC(=O)O [CyPEG-3]	satisfactory aqueous solubility
